T1: MotA E153A (Enterobacteria phage T4, UniProt P22915 1-211, E153A)
T1 sequence: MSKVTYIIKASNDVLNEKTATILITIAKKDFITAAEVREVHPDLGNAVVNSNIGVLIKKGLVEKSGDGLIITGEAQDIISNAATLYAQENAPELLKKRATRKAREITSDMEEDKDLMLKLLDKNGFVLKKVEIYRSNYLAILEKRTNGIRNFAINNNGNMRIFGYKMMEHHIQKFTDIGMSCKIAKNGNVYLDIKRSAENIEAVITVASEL

T2: MotA Y134A (Enterobacteria phage T4, UniProt P22915 1-211, Y134A)
T2 sequence: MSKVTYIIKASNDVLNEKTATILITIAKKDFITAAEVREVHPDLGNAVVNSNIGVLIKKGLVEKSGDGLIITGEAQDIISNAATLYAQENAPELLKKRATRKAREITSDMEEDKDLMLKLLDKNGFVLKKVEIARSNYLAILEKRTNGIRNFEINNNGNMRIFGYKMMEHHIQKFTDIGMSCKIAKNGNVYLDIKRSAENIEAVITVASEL

B1: EMSA 19-mer GHMe/unmod (dsDNA)
DNA 1: AATTATTTGCTTTAGATTA
DNA 2: TAATCTAAAGCAAATAATT
modifications: beta-D-glucosyl-5-hydroxymethyl-dC at top C10
B2: EMSA 19-mer unmodified (dsDNA)
DNA 1: AATTATTTGCTTTAGATTA
DNA 2: TAATCTAAAGCAAATAATT

How the values were obtained:
MotA E153A [1] = molecular target: T1, MotA E153A; experiment: EMSA; no difference; data not shown; EMSA: 0.01 pmol 32P-DNA, 1.7 pmol MotA, native 12% PAGE in 1x TBE at 4 C, other conditions as in ref 14; SPR: biotin-DNA on neutravidin chip, buffer as in ref 2
MotA Y134A = molecular target: T2, MotA Y134A; experiment: EMSA; similar to wt; EMSA: 0.01 pmol 32P-DNA, 1.7 pmol MotA, native 12% PAGE in 1x TBE at 4 C, other conditions as in ref 14; SPR: biotin-DNA on neutravidin chip, buffer as in ref 2
MotA E153A [2] = molecular target: T1, MotA E153A; experiment: EMSA; slightly tighter than wt; EMSA: 0.01 pmol 32P-DNA, 1.7 pmol MotA, native 12% PAGE in 1x TBE at 4 C, other conditions as in ref 14; SPR: biotin-DNA on neutravidin chip, buffer as in ref 2

Row | Binder | binding result (MotA E153A [1]) | binding result (MotA Y134A) | binding result (MotA E153A [2])
1 | B1 | binds |  | 
2 | B2 |  | binds | binds

Source: paper PMC6007404 (Nucleic Acids Research, 2018)
